“And” between values parts separate entries of the source, which are not always exact repeats. Equal entries are not always repeated.

For this data set the following is noted: Pseudomonas putida, 25 °C, GdnHCl, phosphate 50 mM, reversible: yes, whole UniProt chain shown.

B1: 2-hydroxymuconate tautomerase wild type, Q01468 (protein)
chain: MPIAQIHILEGRSDEQKETLIREVSEAISRSLDAPLTSVRVIITEMAKGHFGIGGELASKVRR
Turning to B1, the “denaturant midpoint (higher = more stable)” value by setting is: (pH 6, CD) 1.9 M and 2.1 M and 2.3 M; (pH 6, activity) 1.4 M and 1.7 M; (pH 7.4, CD) 2.4 M and 2.7 M and 2.9 M; (pH 7.4, activity) 2.2 M and 2.5 M and 2.9 M; (pH 8.5, CD) 2.5 M and 2.8 M and 3 M; (pH 8.5, activity) 2.5 M and 2.7 M and 2.9 M.

These data come from FireProtDB (doi:10.1021/bi002752b).
